From patent publication US20220160843A1 (priority 2019, published 2022)

Columns and labels:
P. aeruginosa [1] = assay: Minimal inhibitory concentration (MIC), modified CLSI broth microdilution in CAA or CAA/HuS; assay type: cell-based, Pseudomonas aeruginosa; details: for MIC (μg/mL) in CAA: CAA media; for MIC (μg/mL in CAA/HuS) / MIC value in CAA/HuS: CAA supplemented with 25% human serum
[2] = test system: P. aeruginosa strain ATCC 17647; assay: Minimal Biofilm Eradicating Concentration (MBEC), Calgary Biofilm Device; assay type: cell-based, Pseudomonas aeruginosa; details: 24 h biofilm, 24 h treatment; minimum concentration removing >95% of biofilm biomass (crystal violet)
Description: All samples were examined in triplicate.

human erythrocytes = assay type: cell-based
Procedure: The hemolytic activity of the GN lysins was measured as the amount of hemoglobin released by the lysis of human erythrocytes (30). Briefly, 3 ml of fresh human blood cells (hRBCs) obtained from pooled healthy donors (BioreclamationIVT) in a polycarbonate tube containing heparin was centrifuged at 1,000×g for 5 min at 4° C. The erythrocytes obtained were washed three times with phosphate-buffered saline (PBS) solution (pH 7.2) and resuspended in […]. […] Intact erythrocytes were pelleted by centrifugation at 1,000×g for 5 min at 4° C., and the supernatant was transferred to a new 96-well plate. The release of hemoglobin was monitored by measuring the absorbance at 570 nm.

P. aeruginosa [3] = assay: Time-kill assay of GN lysin activity; assay type: cell-based, Pseudomonas aeruginosa; details: for bactericidal activity in the time-kill assay format: 3-hour timepoint, 10 μg/mL, in either CAA/HuS or HEPES buffer; for Log10 CFU/mL T = 3 hr / Log10 CFU/mL T = l hr: lysin 10 μg/mL, T = 0 7.8; for Log10 CFU/mL T = 3 hr: buffer control 7.2, limit of detection 3.7; for Log10 CFU/mL T = l hr: buffer control 7.7
Procedure: All treatments were incubated at 37° C. with aeration.

[4] = test system: carbapenem-resistant clinical strain, WC-452; assay: Checkerboard assay to examine synergy with antibiotics in CAA/HuS; assay type: cell-based, P. aeruginosa
Procedure: Fractional inhibitor concentration index (FICI) values were determined for all combinations; values of <0.5 indicate synergy.
(§1) The checkerboard assays is based on a modification of the CLSI method for MIC determination by broth microdilution (26, 29). Checkerboards were constructed by first preparing columns of a 96-well polypropylene microtiter plate, in which each well had the same amount of antibiotic diluted 2-fold along the horizontal axis. […] Summation fractional inhibitory concentrations (ΣFICs) were calculated for each drug and the minimum ΣFIC value (ΣFICmin) was used to determine synergy. ΣFICs were calculated as follows: ΣFIC=FIC A+FIC B, where FIC A is the MIC of each antibiotic in the combination/MIC of each antibiotic alone, and FIC B is the MIC of each GN lysin in the combination/MIC of each GN lysin alone. The combination is considered synergistic when the ΣFIC is ≤0.5, strongly additive when the ΣFIC is >0.5 to <1, additive with the ΣFIC is 1−<2, and antagonistic when the ΣFIC is ≥2.

[5] = test system: carbapenem-resistant P. aeruginosa strains; assay: Resensitization of carbapenem-resistant clinical strains using carbapenems in combination with lysins; assay type: cell-based
Procedure: as §1
Up to seven carbapenem-resistant isolates were assessed. […] See Clinical and Laboratory Standards Institute (CLSI), CLSI. […] M100 Performance Standards for Antimicrobial Susceptibility Testing; 29th Edition. Clinical and Laboratory Standards Institute, Wayne, Pa.

[6] = CAA/HuS, ‡ indicates bactericidal activity
[7] = HEPES buffer, ‡ indicates bactericidal activity

B1: GN17: Native lysin, GenBank ACD38663.1, SEQ ID NO: 24 (protein, listed as Pseudomonas aeruginosa)
chain: MTLRYGDRSQEVRQLQRRLNTWAGANLYEDGHFGAATEDAVRAFQRSHGLVADGIAGPKTLAALGGADCSHLLQNADLVAAATRLGLPLATIYAVNQVESNGQGFLGNGKPAILFERHIMYRRLAAHDQVTADQLAAQFPALVNPRPGGYAGGTAEHQRLANARQIDDTAALESASWGAFQIMGFHWQRLGYISVQAFAEAMGRSESAQFEAFVRFIDTDPALHKALKARKWADFARLYNGPDYKRNLYDNKLARAYEQHANCAEASA
- MIC (μg/mL) in CAA (P. aeruginosa [1]): 32 µg/mL
- MIC (μg/mL in CAA/HuS) (P. aeruginosa [1]): 16 µg/mL
- MBEC [2]: 0.125 µg/mL
- hemolytic activity (human erythrocytes): no hemolytic activity whatsoever
- bactericidal activity in the time-kill assay format (P. aeruginosa [3]): bactericidal activity
- Log10 CFU/mL T = 3 hr (P. aeruginosa [3]; [6]): 4.2‡ Log10 CFU/mL
- Log10 CFU/mL T = l hr (P. aeruginosa [3]; CAA/HuS): 6.4 Log10 CFU/mL
- Log10 CFU/mL T = 3 hr (P. aeruginosa [3]; [7]): <3.7‡ Log10 CFU/mL
- Log10 CFU/mL T = l hr (P. aeruginosa [3]; [7]): 5.4 Log10 CFU/mL

B2: GN121: Modified GN37, C-terminal peptide RKKTRKRLKKIGKVLKWI, SEQ ID NO: 13 (protein)
chain: MTYTLSKRSLDNLKGVHPDLVAVVHRAIQLTPVDFAVIEGLRSVSRQKELVAAGASKTMNSRHLTGHAVDLAAYVNGIRWDWPLYDAIAVAVKAAAKELGVAIVWGGDWTTFKDGPHFELDRSKYRRKKTRKRLKKIGKVLKWI
- MIC (μg/mL) in CAA (P. aeruginosa [1]): 0.5 µg/mL
- MIC (μg/mL in CAA/HuS) (P. aeruginosa [1]): 0.5 µg/mL
- MIC value in CAA/HuS (P. aeruginosa [1]): 0.5 µg/mL
- MBEC [2]: 0.25 µg/mL
- Log10 CFU/mL T = 3 hr (P. aeruginosa [3]; [6]): <3.7‡ Log10 CFU/mL
- Log10 CFU/mL T = l hr (P. aeruginosa [3]; CAA/HuS): 7.4 Log10 CFU/mL
- Log10 CFU/mL T = 3 hr (P. aeruginosa [3]; [7]): <3.7‡ Log10 CFU/mL
- Log10 CFU/mL T = l hr (P. aeruginosa [3]; [7]): <3.7‡ Log10 CFU/mL
- synergy with antibiotics in the checkerboard assay [4]: synergize with a range of antibiotics
- FICI, Amikacin ([4]; lysin + amikacin): 0.375
- FICI, Azithromycin ([4]; lysin + azithromycin): 0.188
- FICI, Aztreonam ([4]; lysin + aztreonam): 0.625
- FICI, Ciprofloxacin ([4]; lysin + ciprofloxacin): 0.313
- FICI, Colistin ([4]; lysin + colistin): 0.375
- FICI, Fosfomycin ([4]; lysin + fosfomycin): 0.375
- FICI, Gentamicin ([4]; lysin + gentamicin): 0.375
- FICI, Imipenem ([4]; lysin + imipenem): 0.375
- FICI, Meropenem ([4]; lysin + meropenem): 0.313
- FICI, Piperacillin ([4]; lysin + piperacillin): 0.375
- FICI, Rifampicin ([4]; lysin + rifampicin): 0.313
- FICI, Tobramycin ([4]; lysin + tobramycin): 0.188
- GN121 Alone ([5]; isolate PA19, MIC of GN121 alone (imipenem checkerboard)): 1 µg/mL
- GN121 Alone ([5]; isolate PA19, MIC of GN121 alone (meropenem checkerboard)): 2 µg/mL
- GN121 Combination ([5]; isolate PA19, MIC of GN121 in combination with imipenem): 0.125 µg/mL
- GN121 Combination ([5]; isolate PA19, MIC of GN121 in combination with meropenem): 0.5 µg/mL
- FICI ([5]; isolate PA19, imipenem + GN121): 0.155
- FICI ([5]; isolate PA19, meropenem + GN121): 0.281
- GN121 Alone ([5]; isolate PA20, MIC of GN121 alone (imipenem checkerboard)): 1 µg/mL
- GN121 Alone ([5]; isolate PA20, MIC of GN121 alone (meropenem checkerboard)): 2 µg/mL
- GN121 Combination ([5]; isolate PA20, MIC of GN121 in combination with imipenem): 0.25 µg/mL
- GN121 Combination ([5]; isolate PA20, MIC of GN121 in combination with meropenem): 0.5 µg/mL
- FICI ([5]; isolate PA20, imipenem + GN121): 0.265
- FICI ([5]; isolate PA20, meropenem + GN121): 0.313
- GN121 Alone ([5]; isolate PA21, MIC of GN121 alone (imipenem checkerboard)): 1 µg/mL
- GN121 Alone ([5]; isolate PA21, MIC of GN121 alone (meropenem checkerboard)): 1 µg/mL
- GN121 Combination ([5]; isolate PA21, MIC of GN121 in combination with imipenem): 0.125 µg/mL
- GN121 Combination ([5]; isolate PA21, MIC of GN121 in combination with meropenem): 0.125 µg/mL
- FICI ([5]; isolate PA21, imipenem + GN121): 0.155
- FICI ([5]; isolate PA21, meropenem + GN121): 0.188
- GN121 Alone ([5]; isolate PA22, MIC of GN121 alone (imipenem checkerboard)): 2 µg/mL
- GN121 Alone ([5]; isolate PA22, MIC of GN121 alone (meropenem checkerboard)): 1 µg/mL
- GN121 Combination ([5]; isolate PA22, MIC of GN121 in combination with imipenem): 0.25 µg/mL
- GN121 Combination ([5]; isolate PA22, MIC of GN121 in combination with meropenem): 0.25 µg/mL
- FICI ([5]; isolate PA22, imipenem + GN121): 0.188
- FICI ([5]; isolate PA22, meropenem + GN121): 0.313
- GN121 Alone ([5]; isolate PA23, MIC of GN121 alone (imipenem checkerboard)): 1 µg/mL
- GN121 Alone ([5]; isolate PA23, MIC of GN121 alone (meropenem checkerboard)): 2 µg/mL
- GN121 Combination ([5]; isolate PA23, MIC of GN121 in combination with imipenem): 0.25 µg/mL
- GN121 Combination ([5]; isolate PA23, MIC of GN121 in combination with meropenem): 0.5 µg/mL
- FICI ([5]; isolate PA23, imipenem + GN121): 0.257
- FICI ([5]; isolate PA23, meropenem + GN121): 0.375
- GN121 Alone ([5]; isolate PA24, MIC of GN121 alone (imipenem checkerboard)): 1 µg/mL
- GN121 Alone ([5]; isolate PA24, MIC of GN121 alone (meropenem checkerboard)): 1 µg/mL
- GN121 Combination ([5]; isolate PA24, MIC of GN121 in combination with imipenem): 0.125 µg/mL
- GN121 Combination ([5]; isolate PA24, MIC of GN121 in combination with meropenem): 0.125 µg/mL
- FICI ([5]; isolate PA24, imipenem + GN121): 0.155
- FICI ([5]; isolate PA24, meropenem + GN121): 0.156
- GN121 Alone ([5]; isolate WC-452, MIC of GN121 alone (meropenem checkerboard)): 1 µg/mL
- GN121 Combination ([5]; isolate WC-452, MIC of GN121 in combination with meropenem): 0.06 µg/mL
- FICI ([5]; isolate WC-452, meropenem + GN121): 0.123
- resensitization of carbapenem-resistant isolates to IPM and MEM ([5]; synergistic combinations with imipenem or meropenem, breakpoints ≤2 sensitive, 4 intermediate, ≥8 resistant): reductions of IPM and MEM MICS to below breakpoint values

B3: GN3: Native lysin, WP_012273008.1/Lysozyme, SEQ ID NO: 2 (protein, listed as Pseudomonas putida)
chain: MRTSQRGLSLIKSFEGLRLQAYQDSVGVWTIGYGTTRGVKAGMKISKDQAERMLLNDVQRFEPEVERLIKVPLNQDQWDALMSFTYNLGAANLESSTLRRLLNAGNYAAAAEQFPRWNKAGGQVLAGLTRRRAAERELFLGAA
- MIC (μg/mL) in CAA (P. aeruginosa [1]): 16 µg/mL
- MIC (μg/mL in CAA/HuS) (P. aeruginosa [1]): 16 µg/mL
- MIC value in CAA/HuS (P. aeruginosa [1]): 16 µg/mL
- MBEC [2]: 0.25 µg/mL
- hemolytic activity (human erythrocytes): no hemolytic activity whatsoever
- bactericidal activity in the time-kill assay format (P. aeruginosa [3]): bactericidal activity
- Log10 CFU/mL T = 3 hr (P. aeruginosa [3]; [6]): <3.7‡ Log10 CFU/mL
- Log10 CFU/mL T = l hr (P. aeruginosa [3]; CAA/HuS): 5.8 Log10 CFU/mL
- Log10 CFU/mL T = 3 hr (P. aeruginosa [3]; [7]): <3.7‡ Log10 CFU/mL
- Log10 CFU/mL T = l hr (P. aeruginosa [3]; [7]): <3.7‡ Log10 CFU/mL

B4: GN9: Native lysin, GenBank ECJ78460.1, SEQ ID NO: 21 (protein)
chain: MKNFNEIIEHVLKHEGGYVNDPKDLGGETKYGITKRFYPDLDIKNLTIEQATEIYKKDYWDKNKVESLPQNLWHIYFDMCVNMGKRTAVKVLQRAAVNRGRDIEVDGGLGPATIGALKGVELDRVRAFRVKYYVDLITARPEQEKFYLGWFRRATEV
modifications: Marine metagenome
- MIC (μg/mL) in CAA (P. aeruginosa [1]): 8 µg/mL
- MIC (μg/mL in CAA/HuS) (P. aeruginosa [1]): 2 µg/mL
- MBEC [2]: 0.125 µg/mL
- hemolytic activity (human erythrocytes): no hemolytic activity whatsoever
- Log10 CFU/mL T = 3 hr (P. aeruginosa [3]; [6]): 7.3 Log10 CFU/mL
- Log10 CFU/mL T = l hr (P. aeruginosa [3]; CAA/HuS): 6.8 Log10 CFU/mL
- Log10 CFU/mL T = 3 hr (P. aeruginosa [3]; [7]): 5.7 Log10 CFU/mL
- Log10 CFU/mL T = l hr (P. aeruginosa [3]; [7]): 6.7 Log10 CFU/mL

B5: GN13: Native lysin, GenBank YP_00638255.1, SEQ ID NO: 23 (protein)
chain: MSDKRVEITGNVSGFFESGGRGVKTVSTGKGDNGGVSYGKHQLASNNGSMALFLESPFGAPYRAQFAGLKPGTAAFTSVYNKIANETPTAFERDQFQYIAASHYDPQAAKLKAEGINVDDRHVAVRECVFSVAVQYGRNTSIIIKALGSNFRGSDKDFIEKVQDYRGATVNTYFKSSSQQTRDSVKNRSQQEKQMLLKLLNS
modifications: Pseudomonas phage Lu11
- MIC (μg/mL) in CAA (P. aeruginosa [1]): 8 µg/mL
- MIC (μg/mL in CAA/HuS) (P. aeruginosa [1]): >128 µg/mL
- MBEC [2]: 0.125 µg/mL
- hemolytic activity (human erythrocytes): no hemolytic activity whatsoever
